# Test results reported in patent US20150010589A1 (published 2015).
# T1: soluble collagen type III (pepsin-digested, non-fibrillar; BD Biosciences) (human, UniProt P02461 168-1196)
# T1 construct: domain: pepsin-digested, soluble non-fibrillar (tertiary structure, triple helical); also called collagen III
# T1 sequence: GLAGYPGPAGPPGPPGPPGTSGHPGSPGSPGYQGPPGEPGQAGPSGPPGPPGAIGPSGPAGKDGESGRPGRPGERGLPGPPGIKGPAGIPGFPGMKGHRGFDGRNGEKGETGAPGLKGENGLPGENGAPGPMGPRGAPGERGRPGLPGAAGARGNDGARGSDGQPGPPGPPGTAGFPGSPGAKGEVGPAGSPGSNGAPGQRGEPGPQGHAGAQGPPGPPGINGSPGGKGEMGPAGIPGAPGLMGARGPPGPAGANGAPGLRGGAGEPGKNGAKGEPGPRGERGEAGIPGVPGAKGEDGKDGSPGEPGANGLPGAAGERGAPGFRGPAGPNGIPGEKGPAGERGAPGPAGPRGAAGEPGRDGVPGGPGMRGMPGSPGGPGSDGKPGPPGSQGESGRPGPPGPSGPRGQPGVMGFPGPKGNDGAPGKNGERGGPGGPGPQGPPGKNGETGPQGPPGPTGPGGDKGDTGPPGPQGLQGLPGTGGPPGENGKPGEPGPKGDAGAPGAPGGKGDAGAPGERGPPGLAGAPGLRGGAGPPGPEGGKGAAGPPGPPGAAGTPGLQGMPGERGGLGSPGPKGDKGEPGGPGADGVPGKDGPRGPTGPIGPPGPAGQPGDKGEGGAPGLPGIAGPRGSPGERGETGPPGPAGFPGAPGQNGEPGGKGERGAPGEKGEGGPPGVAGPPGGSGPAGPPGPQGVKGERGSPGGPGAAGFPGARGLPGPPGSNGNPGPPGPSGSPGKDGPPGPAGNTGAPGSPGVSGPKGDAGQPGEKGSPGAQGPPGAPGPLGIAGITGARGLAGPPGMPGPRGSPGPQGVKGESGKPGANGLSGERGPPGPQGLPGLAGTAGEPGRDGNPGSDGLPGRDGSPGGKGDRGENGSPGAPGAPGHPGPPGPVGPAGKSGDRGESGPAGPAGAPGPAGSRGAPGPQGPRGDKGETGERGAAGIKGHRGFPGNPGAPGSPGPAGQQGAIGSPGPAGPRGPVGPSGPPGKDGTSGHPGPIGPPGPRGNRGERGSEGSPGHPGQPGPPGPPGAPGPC
# B1: recombinant GPVI (platelet glycoprotein VI) (receptor)
# chain: QSGPLPKPSLQALPSSLVPLEKPVTLRCQGPPGVDLYRLEKLSSSRYQDQAVLFIPAMKRSLAGRYRCSYQNGSLWSLPSDQLELVATGVFAKPSLSAQPGPAVSSGGDVTLQCQTRYGFDQFALYKEGDPAPYKNPERWYRASFPIITVTAAHSGTYRCYSFSSRDPYLWSAPSDPLELVVTGTSVTPSRLPTEPPSPVAEFSEATAELTVSFTNEVFTTETSRSITASPKESDSPAGPARQYYTK
# B2: Aegyptin C-terminus-2 (137 aa), truncated form without GEEDA repeats (other)
# chain: GGDEGEDNAEDSKGSEKNDPADTYRQVVALLDKDTKVDHIQSEYLRSALNNDLQSEVRVPVVEAIGRIGDYSKIQGCFKSMGKDVKKVISEEEKKFKSCMSKKKSEYQCSEDSFAAAKSKLSPITSKIKSCVSSKGR
# notes: also called C-terminal-2; C-terminus 2 domain
# B3: recombinant Aegyptin (mature protein with C-terminal 6xHis tag, expressed in 293-F cells) (other)
# chain: RPMPEDEEPVAEGGDDDASGESEGEEETTDDAGGDGGEEENEGEEHAGDKDAGGEDTGKEENTGHDDAGEEDAGEEDAGEEDAGEEDAGEEDAEKEEGEKEDAGDDAGSDDGEEDSTGGDEGEDNAEDSKGSEKNDPADTYRQVVALLDKDTKVDHIQSEYLRSALNNDLQSEVRVPVVEAIGRIGDYSKIQGCFKSMGKDVKKVISEEEKKFKSCMSKKKSEYQCSEDSFAAAKSKLSPITSKIKSCVSSKGRHHHHHH
# Columns and labels:
# [1] = target: B3; assay: SPR, Aegyptin injected over immobilized GPVI
# [2] = target: T2, soluble collagen type I (pepsin-digested, non-fibrillar, triple helical; BD Biosciences) (human, UniProt P02452 179-1192; P08123 91-1104); assay: SPR, C-terminus-2 (5-250 nM) over immobilized soluble collagen type I, two-state binding model
# T2 construct: domain: pepsin-digested, soluble non-fibrillar (tertiary structure, triple helical); also called collagen I; Coll-I
# T2 sequence (P02452 179-1192 limits assumed, chain 1 of 2): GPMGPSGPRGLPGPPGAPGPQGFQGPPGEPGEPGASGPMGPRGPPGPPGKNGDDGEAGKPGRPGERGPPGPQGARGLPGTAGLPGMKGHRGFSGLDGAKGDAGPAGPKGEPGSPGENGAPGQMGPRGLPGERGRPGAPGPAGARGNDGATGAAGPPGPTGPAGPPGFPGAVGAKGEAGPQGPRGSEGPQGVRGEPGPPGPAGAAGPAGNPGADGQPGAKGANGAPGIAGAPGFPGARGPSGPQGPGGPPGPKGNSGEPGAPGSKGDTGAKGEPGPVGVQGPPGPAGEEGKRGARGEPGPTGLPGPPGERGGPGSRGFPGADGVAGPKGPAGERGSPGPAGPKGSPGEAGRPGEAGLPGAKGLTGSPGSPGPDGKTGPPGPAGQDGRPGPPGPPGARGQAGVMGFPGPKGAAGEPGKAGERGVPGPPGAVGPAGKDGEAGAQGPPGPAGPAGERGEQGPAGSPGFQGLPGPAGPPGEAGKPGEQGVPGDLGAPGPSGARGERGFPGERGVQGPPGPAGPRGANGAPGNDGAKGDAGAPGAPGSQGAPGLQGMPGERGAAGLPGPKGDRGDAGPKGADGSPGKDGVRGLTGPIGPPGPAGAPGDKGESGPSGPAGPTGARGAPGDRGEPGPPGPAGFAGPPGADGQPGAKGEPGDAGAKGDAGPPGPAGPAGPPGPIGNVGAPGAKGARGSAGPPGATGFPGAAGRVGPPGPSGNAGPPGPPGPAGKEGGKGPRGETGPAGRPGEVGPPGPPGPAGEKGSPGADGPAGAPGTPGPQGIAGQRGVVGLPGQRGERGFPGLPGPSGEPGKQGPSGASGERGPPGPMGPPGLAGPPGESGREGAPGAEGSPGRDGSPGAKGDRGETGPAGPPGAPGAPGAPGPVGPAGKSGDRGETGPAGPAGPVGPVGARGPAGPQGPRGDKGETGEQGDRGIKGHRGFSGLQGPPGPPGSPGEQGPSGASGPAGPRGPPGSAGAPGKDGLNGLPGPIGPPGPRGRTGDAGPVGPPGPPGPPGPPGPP
# T2 sequence (P08123 91-1104 limits assumed, chain 2 of 2): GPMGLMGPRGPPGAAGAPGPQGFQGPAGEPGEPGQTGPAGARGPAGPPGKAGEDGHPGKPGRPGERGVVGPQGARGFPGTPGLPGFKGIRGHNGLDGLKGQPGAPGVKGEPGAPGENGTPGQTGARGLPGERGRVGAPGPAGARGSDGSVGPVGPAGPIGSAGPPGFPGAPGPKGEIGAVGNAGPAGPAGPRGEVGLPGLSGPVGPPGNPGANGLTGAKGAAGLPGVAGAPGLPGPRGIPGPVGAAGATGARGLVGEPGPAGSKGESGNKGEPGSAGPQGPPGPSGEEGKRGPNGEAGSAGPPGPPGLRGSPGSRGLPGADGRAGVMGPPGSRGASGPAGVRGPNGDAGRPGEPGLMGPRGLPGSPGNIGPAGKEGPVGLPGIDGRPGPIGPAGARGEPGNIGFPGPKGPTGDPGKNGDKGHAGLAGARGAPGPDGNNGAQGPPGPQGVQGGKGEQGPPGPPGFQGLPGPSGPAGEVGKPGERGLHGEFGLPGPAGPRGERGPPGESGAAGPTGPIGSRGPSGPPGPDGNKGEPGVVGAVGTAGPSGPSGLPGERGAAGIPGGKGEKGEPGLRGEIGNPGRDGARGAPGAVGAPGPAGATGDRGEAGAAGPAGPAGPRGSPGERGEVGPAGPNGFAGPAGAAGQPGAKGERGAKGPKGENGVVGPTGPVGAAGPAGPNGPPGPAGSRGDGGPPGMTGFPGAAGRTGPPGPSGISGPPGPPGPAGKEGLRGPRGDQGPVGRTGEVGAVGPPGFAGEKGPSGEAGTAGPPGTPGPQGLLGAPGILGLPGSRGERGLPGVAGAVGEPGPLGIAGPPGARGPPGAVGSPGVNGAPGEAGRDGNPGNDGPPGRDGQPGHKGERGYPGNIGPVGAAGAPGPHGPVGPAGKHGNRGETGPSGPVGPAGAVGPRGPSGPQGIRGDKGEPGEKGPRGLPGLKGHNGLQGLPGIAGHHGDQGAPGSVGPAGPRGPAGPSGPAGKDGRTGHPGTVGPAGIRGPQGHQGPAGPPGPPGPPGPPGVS
# [3] = target: T2, soluble collagen type I …; assay: SPR, Aegyptin over immobilized soluble collagen type I, two-state model
# [4] = target: T2, soluble collagen type I …; assay: SPR, Aegyptin over immobilized soluble collagen type I, 180 s at 30 µl/min, two-state model; Ka1
# [5] = target: T3, heat-denatured soluble collagen type I (90 min at 98° C.) (human, UniProt P02452 179-1192; P08123 91-1104); assay: SPR, Aegyptin over immobilized heat-denatured collagen I, two-state model; Kd1
# T3 construct: domain: pepsin-digested, soluble non-fibrillar collagen, heat-denatured; Same material as soluble collagen I, denatured in a thermocycler before immobilization; also called Collagen denatured; heat-denatured collagen
# T3 sequence (P02452 179-1192 limits assumed, chain 1 of 2): as the sequence (P02452 179-1192 limits assumed, chain 1 of 2) above
# T3 sequence (P08123 91-1104 limits assumed, chain 2 of 2): as the sequence (P08123 91-1104 limits assumed, chain 2 of 2) above
# [6] = target: T2, soluble collagen type I …; assay: SPR (Biacore T100), Aegyptin over immobilized collagen type I, 25 C, two-state reaction model
# [7] = target: T1, soluble collagen type III …; assay: SPR (Biacore T100), Aegyptin over immobilized collagen type III, 25 C, two-state reaction model
# [8] = target: T2, soluble collagen type I …; assay: SPR kinetics at 15-40 C on immobilized collagen type I, van't Hoff analysis; value (±SE)
# [9] = target: T2, soluble collagen type I …; assay: SPR (Biacore T100), Aegyptin over immobilized collagen type I, 25 C, two-state reaction model; Ka1
# [10] = target: T3, heat-denatured soluble collagen type I …; assay: SPR, Aegyptin over immobilized heat-denatured collagen I, two-state model; Ka1
# [11] = target: T2, soluble collagen type I …; assay: SPR, Aegyptin over immobilized soluble collagen type I, two-state model; Kd1
# [12] = target: T4, RGQOGVMGFO peptide GPC-(GPP)5-GPOGPSGPRGQOGVMGFOGPKGNDGAO-(GPP)5-GPC-NH2, cross-linked (O residues as printed (hydroxyproline); C-terminal amide (NH2); cross-linked (4° C. for 48 hours in PBS, or SPDP)); assay: ELISA, inhibition of vWf (3 nM) binding to the coated RGQOGVMGFO peptide by Aegyptin (0.05-3 µM)
# T4 construct: also called collagen type III vWf-related peptide
# [13] = target: T1, soluble collagen type III …; assay: SPR (Biacore T100), Aegyptin over immobilized collagen type III, 25 C, two-state reaction model; Ka1
# [14] = target: T3, heat-denatured soluble collagen type I …; assay: SPR, Aegyptin over immobilized heat-denatured collagen I, two-state model
# [15] = target: T1, soluble collagen type III …; assay: SPR (Biacore T100), Aegyptin over immobilized collagen type III, 25 C, two-state reaction model; Kd1
# [16] = target: T2, soluble collagen type I …; assay: SPR (Biacore T100), Aegyptin over immobilized collagen type I, 25 C, two-state reaction model; Kd1
binder,measurement,setting,value
B1,binding result,[1],no binding (tested: 500 nM)
B2,Kd,[2],~60 nM
B3,Kd,[3],0.98 nM
same,kon,[4],3.63e+08 M⁻¹ s⁻¹
same,koff,[5],0.0188 s⁻¹
same,Kd,[6],1.22 nM
same,Kd,[7],1.4 nM
same,TΔS°,[8],6.69 kcal/mol
same,ΔG°,[8],-11.5 kcal/mol
same,ΔH°,[8],-4.78 kcal/mol
same,ΔS°,[8],95 J/(K*mol)
same,kon,[9],4.24e+06 M⁻¹ s⁻¹
same,kon,[10],6740 M⁻¹ s⁻¹
same,koff,[11],0.0103 s⁻¹
same,IC50,[12],~300 nM
same,kon,[13],2.49e+06 M⁻¹ s⁻¹
same,Kd,[14],3.32 nM
same,koff,[15],0.00605 s⁻¹
same,koff,[16],0.0154 s⁻¹
